The values below come from patent US20150191542A1 (INNATE PHARMA S A, published 2015).

Positions count from the first letter of the chain named.

Assay [1] deals with T1, MICA*001 expressed on transfected cells (human).
T1 construct: the cells carry the complete allele; also called C1R-MICA*001; C1R-MICA*01
T1 chain: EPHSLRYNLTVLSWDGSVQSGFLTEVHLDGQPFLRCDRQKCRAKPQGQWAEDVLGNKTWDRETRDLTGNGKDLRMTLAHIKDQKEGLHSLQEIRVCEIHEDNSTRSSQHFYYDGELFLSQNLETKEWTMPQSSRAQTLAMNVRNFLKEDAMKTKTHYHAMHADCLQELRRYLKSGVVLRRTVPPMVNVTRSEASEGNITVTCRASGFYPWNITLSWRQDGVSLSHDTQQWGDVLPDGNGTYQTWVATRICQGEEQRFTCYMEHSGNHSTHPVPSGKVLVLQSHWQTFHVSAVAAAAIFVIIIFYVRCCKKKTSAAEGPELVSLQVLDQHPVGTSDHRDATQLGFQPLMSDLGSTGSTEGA
The experiment in a line: flow cytometry on C1R-MICA*001 cells, 3-parameter logistic fit. How it is done: (§1) The binding of antibodies obtained from the first and second immunization series (including 9C10, 20C6 and 16A8) were tested for binding to MICA-expressing CR1 transfectant cells C1R-MICA*001, C1R-MICA*004, C1R-MICA*007 and C1R-MICA*008 (Pr. A. Steinle, Eberhard-Karls University Tuebingen, Germany) described in Salih et al. (2003) Blood 102(4): […]. Binding was analyzed by flow cytometry.
(§2) Cells were harvested and stained in PBS 1×/BSA 0,2%/EDTA 2 mM buffer during 30 minutes at 4° C. using a dose-range of the anti-MICA mAbs. After two washes in staining buffer, cells were stained for 30 min at 4° C. with goat anti-mouse (H+L)-PE polyclonal antibodies (1/200). After two washes, stainings were acquired on a BD FACS Canto II and analyzed using the FlowJo software.
(§3) Antibodies 9C10, 20C6 and 16A8 bound to each of the C1R-MICA*001, C1R-MICA*004, C1R-MICA*007 and C1R-MICA*008 cells (see FIGS. 3A, 3B and 3C for antibodies 9C10, 20C6 and 16A8 respectively). […] EC50 values are shown in Table C in μg/ml (calculated using a 3-parameter logistic fit).

The target of assay [2] is T2, MICA*008 expressed on C1R transfectant cells (human, UniProt Q29983 24-297, Glycosylated on cells; the letters do not carry this.).
T2 construct: also called C1R-MICA*008; C1R-MICA*08
T2 chain: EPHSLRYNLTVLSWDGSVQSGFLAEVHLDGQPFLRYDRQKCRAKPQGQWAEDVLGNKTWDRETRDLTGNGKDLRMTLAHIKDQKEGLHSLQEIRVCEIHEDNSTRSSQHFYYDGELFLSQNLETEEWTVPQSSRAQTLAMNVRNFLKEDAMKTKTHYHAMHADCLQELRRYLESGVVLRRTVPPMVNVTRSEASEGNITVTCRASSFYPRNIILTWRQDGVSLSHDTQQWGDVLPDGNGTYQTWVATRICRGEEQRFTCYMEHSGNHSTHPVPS
The experiment in a line: flow cytometry on C1R-MICA*008 cells, 3-parameter logistic fit. How it is done:
as §1, §2, §3

Assay [3] has as its target T3, MICA*004 expressed on C1R transfectant cells (human, UniProt Q29983 24-297, Glycosylated on cells; the letters do not carry this.).
T3 construct: also called C1R-MICA*004; C1R-MICA*04
T3 chain: T2 chain with L122V, G175S, T181R, I213T, R251Q
In words: flow cytometry on C1R-MICA*004 cells, 3-parameter logistic fit. The procedure: as §1, §2, §3

The target of assay [4] is T4, MICA*001 extracellular domain recombinant protein (full extracellular domain with a BirA or a Poly-His Tag) (human, UniProt Q29983 24-297).
T4 construct: it may be the same as MICA*001-His; also called MICA extracellular domain recombinant protein; not shown: BirA or poly-His tag
T4 sequence: T2 chain with A24T, Y36C, E125K, V129M, E173K, S206G, R210W, I213T, T215S, R251Q
In words: ELISA, 3 µg/ml recombinant protein coated. The procedure: 3 μg/ml of the indicated MICA recombinant proteins were coated overnight in 96-well plates in PBS 1× at 4° C. All subsequent steps were performed at room temperature. After washes with PBS 1×/Tween 0.05%, plates were saturated for an additional 2 hours in PBS 1×/BSA 1%. Two additional washes were performed prior adding the tested anti-MICA mAb in PBS 1×/BSA 1% for 2 hours. Antibodies were washed and a horseradish peroxidase conjugated goat polyclonal anti-mouse IgG (GAM-HRP) in PBS 1×/BSA 1% was added for 1 hour. Final washing steps were performed and TMB substrate was added to reveal the ELISA (5 to 20 min in the dark) and 1M HCl was added to stop the enzymatic reaction. O.D. was measured at 450 nm.
9C10 binds to MICA extracellular domain recombinant-protein but not MICA extracellular domain α3 recombinant protein. Antibody 16A8, however, bound to both MICA extracellular domain recombinant protein […] MICA extracellular domain α3 recombinant protein. Therefore, it can be concluded from this ELISA experiment that the binding site on MICA of 9C10 antibodies includes the α1 and/or α2 domains while antibody 16A8 binds to MICA within the α3 domain. […] BAMO1 is a commercially available anti-MICA specific for α1α2 domain and BAMO3 is a commercially available anti-MICA specific for α3 domain.

B1: antibody 9C10 (antibody, V domains shown)
VH: QVQLQQPGAELVRPGTSVNLSCKASGYSFTRYWMNWVKQRPGQGLEWIGMIHPSDSETRLNQKFKDKATLTVDKSSSTAYMQLSSPTSEDSAVYYCGYGNFFYVMDYWGQGTSVTVSS
VL: DILLTQSPAILSVSPGERVSFSCRASQSIGTSIHWYQQRTNGSPRLLIKFASESISGIPSRFSGSGSGTDFTLNINSVESEDIADYYCQQSNFWPFTFGSGTKLEVK
modifications: Biotinylated when captured in the SPR assays (9C10-Biot); the sites are not given.
notes: Murine hybridoma antibody of IgG2b isotype as tested; also called 9C10-Biot
As to B1, the concentration giving a half-maximal response (EC50) worked out at 3.15 µg/mL in assay [1], 0.15 µg/mL in assay [2] and 0.2 µg/mL in assay [3]. The binding result in assay [4] is given as “binds”.

B2: antibody 16A8 (antibody, V domains shown)
VH: EVQLVESGGGLVKPGGSLKLSCAASGFTFSRYAMSWVRQTPEKRLEWVATIFSGGSYTYYPDSVKGRFTISRDNANNTLYLQMSSLKAEDTAMYFCARPNWERTFDYWGQGTTLTVSS
VL: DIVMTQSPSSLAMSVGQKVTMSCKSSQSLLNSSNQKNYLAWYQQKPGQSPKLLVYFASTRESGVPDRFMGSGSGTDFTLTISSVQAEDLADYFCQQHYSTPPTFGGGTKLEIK
notes: Murine hybridoma antibody of IgG2a isotype as tested; also called 16A8-Biot
As for B2, the EC50 is 1.18 µg/mL in assay [1], 0.33 µg/mL in assay [2] and 0.31 µg/mL in assay [3]. In addition, the binding result in assay [4] is reported as “binds”.
